# Measurements from article PMC12957837, “Crotonylation driving Streptococcus pneumoniae adaption and virulence” (Journal of Advanced Research, 2025).
# B1: pneumolysin (PLY), wild type (natural protein, Streptococcus pneumoniae D39, UniProt Q04IN8 1-471, looked up)
# chain: MANKAVNDFILAMNYDKKKLLTHQGESIENRFIKEGNQLPDEFVVIERKKRSLSTNTSDISVTATNDSRLYPGALLVVDETLLENNPTLLAVDRAPMTYSIDLPGLASSDSFLQVEDPSNSSVRGAVNDLLAKWHQDYGQVNNVPARMQYEKITAHSMEQLKVKFGSDFEKTGNSLDIDFNSVHSGEKQIQIVNFKQIYYTVSVDAVKNPGDVFQDTVTVEDLKQRGISAERPLVYISSVAYGRQVYLKLETTSKSDEVEAAFEALIKGVKVAPQTEWKQILDNTEVKAVILGGDPSSGARVVTGKVDMVEDLIQEGSRFTADHPGLPISYTTSFLRDNVVATFQNSTDYVETKVTAYRNGDLLLDHSGAYVAQYYITWDELSYDHQGKEVLTPKAWDRNGQDLTAHFTTSIPLKGNVRNLSVKIRECTGLAWEWWRTVYEKTDLPLVRKRTISIWGTTLYPQVEDKVEND
# notes: pneumolysin (PLY) of Streptococcus pneumoniae serotype 2 strain D39; also called wild-type PLY; WT PLY
# B2: pneumolysin (PLY) K171R (natural protein, Streptococcus pneumoniae D39, UniProt Q04IN8 1-471, looked up)
# chain: MANKAVNDFILAMNYDKKKLLTHQGESIENRFIKEGNQLPDEFVVIERKKRSLSTNTSDISVTATNDSRLYPGALLVVDETLLENNPTLLAVDRAPMTYSIDLPGLASSDSFLQVEDPSNSSVRGAVNDLLAKWHQDYGQVNNVPARMQYEKITAHSMEQLKVKFGSDFERTGNSLDIDFNSVHSGEKQIQIVNFKQIYYTVSVDAVKNPGDVFQDTVTVEDLKQRGISAERPLVYISSVAYGRQVYLKLETTSKSDEVEAAFEALIKGVKVAPQTEWKQILDNTEVKAVILGGDPSSGARVVTGKVDMVEDLIQEGSRFTADHPGLPISYTTSFLRDNVVATFQNSTDYVETKVTAYRNGDLLLDHSGAYVAQYYITWDELSYDHQGKEVLTPKAWDRNGQDLTAHFTTSIPLKGNVRNLSVKIRECTGLAWEWWRTVYEKTDLPLVRKRTISIWGTTLYPQVEDKVEND
# notes: pneumolysin (PLY) of Streptococcus pneumoniae serotype 2 strain D39 with K171R
# B3: crotonylated pneumolysin (PLY incubated with crotonyl-CoA) (natural protein, Streptococcus pneumoniae D39, UniProt Q04IN8 1-471, looked up)
# chain: MANKAVNDFILAMNYDKKKLLTHQGESIENRFIKEGNQLPDEFVVIERKKRSLSTNTSDISVTATNDSRLYPGALLVVDETLLENNPTLLAVDRAPMTYSIDLPGLASSDSFLQVEDPSNSSVRGAVNDLLAKWHQDYGQVNNVPARMQYEKITAHSMEQLKVKFGSDFEKTGNSLDIDFNSVHSGEKQIQIVNFKQIYYTVSVDAVKNPGDVFQDTVTVEDLKQRGISAERPLVYISSVAYGRQVYLKLETTSKSDEVEAAFEALIKGVKVAPQTEWKQILDNTEVKAVILGGDPSSGARVVTGKVDMVEDLIQEGSRFTADHPGLPISYTTSFLRDNVVATFQNSTDYVETKVTAYRNGDLLLDHSGAYVAQYYITWDELSYDHQGKEVLTPKAWDRNGQDLTAHFTTSIPLKGNVRNLSVKIRECTGLAWEWWRTVYEKTDLPLVRKRTISIWGTTLYPQVEDKVEND
# modifications: lysine crotonylation (Kcr); K171 and K442 are the Kcr sites the paper names
# notes: pneumolysin (PLY) of Streptococcus pneumoniae serotype 2 strain D39; also called crotonylated PLY; source: E. coli BL21 (λDE3), purified, then incubated with 125 µM crotonyl-CoA at 25 °C for 16 h
# B4: pneumolysin (PLY) K164R (natural protein, Streptococcus pneumoniae D39, UniProt Q04IN8 1-471, looked up)
# chain: MANKAVNDFILAMNYDKKKLLTHQGESIENRFIKEGNQLPDEFVVIERKKRSLSTNTSDISVTATNDSRLYPGALLVVDETLLENNPTLLAVDRAPMTYSIDLPGLASSDSFLQVEDPSNSSVRGAVNDLLAKWHQDYGQVNNVPARMQYEKITAHSMEQLKVRFGSDFEKTGNSLDIDFNSVHSGEKQIQIVNFKQIYYTVSVDAVKNPGDVFQDTVTVEDLKQRGISAERPLVYISSVAYGRQVYLKLETTSKSDEVEAAFEALIKGVKVAPQTEWKQILDNTEVKAVILGGDPSSGARVVTGKVDMVEDLIQEGSRFTADHPGLPISYTTSFLRDNVVATFQNSTDYVETKVTAYRNGDLLLDHSGAYVAQYYITWDELSYDHQGKEVLTPKAWDRNGQDLTAHFTTSIPLKGNVRNLSVKIRECTGLAWEWWRTVYEKTDLPLVRKRTISIWGTTLYPQVEDKVEND
# notes: pneumolysin (PLY) of Streptococcus pneumoniae serotype 2 strain D39 with K164R
# B5: pneumolysin (PLY) K442R (natural protein, Streptococcus pneumoniae D39, UniProt Q04IN8 1-471, looked up)
# chain: MANKAVNDFILAMNYDKKKLLTHQGESIENRFIKEGNQLPDEFVVIERKKRSLSTNTSDISVTATNDSRLYPGALLVVDETLLENNPTLLAVDRAPMTYSIDLPGLASSDSFLQVEDPSNSSVRGAVNDLLAKWHQDYGQVNNVPARMQYEKITAHSMEQLKVKFGSDFEKTGNSLDIDFNSVHSGEKQIQIVNFKQIYYTVSVDAVKNPGDVFQDTVTVEDLKQRGISAERPLVYISSVAYGRQVYLKLETTSKSDEVEAAFEALIKGVKVAPQTEWKQILDNTEVKAVILGGDPSSGARVVTGKVDMVEDLIQEGSRFTADHPGLPISYTTSFLRDNVVATFQNSTDYVETKVTAYRNGDLLLDHSGAYVAQYYITWDELSYDHQGKEVLTPKAWDRNGQDLTAHFTTSIPLKGNVRNLSVKIRECTGLAWEWWRTVYERTDLPLVRKRTISIWGTTLYPQVEDKVEND
# notes: pneumolysin (PLY) of Streptococcus pneumoniae serotype 2 strain D39 with K442R
# Tests used:
# [1] = molecular target: SPD_0839 (Streptococcus pneumoniae, UniProt A0A0H2ZP99); assay: isothermal titration calorimetry; type: binding
# [2] = molecular target: the molecule itself; assay: nanoparticle tracking analysis; NanoSight NS300, samples diluted with PBS, 25 °C; particle concentration of PLY and its mutants
# [3] = molecular target: the molecule itself; assay: SDS-PAGE without β-mercaptoethanol + Western blot; 1 µg Ply or mutant incubated with 125 µM crotonyl-CoA at 25 °C for 16 h; SDS loading buffer without β-mercaptoethanol, 55 °C for 10 min; 6 % SDS-PAGE; anti-Ply Western blot
# [4] = molecular target: the molecule itself; assay: native gel or EMSA; native gel of purified PLY and its mutants; oligomeric and monomeric forms marked by arrows
# SPD_0839, sequence (A0A0H2ZP99 entry or part of it): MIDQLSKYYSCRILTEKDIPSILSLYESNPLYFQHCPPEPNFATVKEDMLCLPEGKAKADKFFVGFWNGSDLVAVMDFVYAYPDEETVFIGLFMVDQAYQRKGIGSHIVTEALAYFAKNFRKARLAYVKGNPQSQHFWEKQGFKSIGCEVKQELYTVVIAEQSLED
molecule,measurement,setting,value
C/C=C/C(=O)SCCNC(=O)CCNC(=O)[C@H](O)C(C)(C)COP(=O)(O)OP(=O)(O)OC[C@H]1O[C@@H](n2cnc3c(N)ncnc32)[C@H](O)[C@@H]1OP(=O)(O)O [CrCoA],Kd,[1],1 µM
CC(=O)SCCNC(=O)CCNC(=O)[C@H](O)C(C)(C)COP(=O)(O)OP(=O)(O)OC[C@H]1O[C@@H](n2cnc3c(N)ncnc32)[C@H](O)[C@@H]1OP(=O)(O)O [AcCoA],Kd,[1],10.4 µM
B1,binding result,[2],binds
B2,binding result,[2],binds
B3,binding result,[3],binds
B4,binding result,[4],binds
B5,binding result,[2],binds
